Data taken from paper PMC7885909 (bioRxiv, 2021).
Numbering of substitutions follows the chain as printed.

B1: ab109 IgG (antibody, V domains shown)
VH: QVQLVQSGGGVVQPGRSLRLSCAASGFTFSSYAMHWVRQAPGKGLEWVAVISYDGSNKYYADSVKGRFTISRDNSKNTLYLQMNSLRAEDTAVYYCARDQEYYDILTGASGGFDYWGQGTLVTVSS
VL: not shown
B2: ab072 IgG (antibody, V domains shown)
VH: not shown
VL: QSALTQPASVSGSPGQSITISCTGTSSDVGGYNYVSWYQQHPGKAPKLMIYDVSNRPSGVSNRFSGSKSGNTASLTISGLQAEDEADYYCSSYTSSSTLVVFGTGTKVTVL
B3: ab017 IgG (antibody, V domains shown)
VH: not shown
VL: QSVLTQPASVSGSPGQSITISCTGTSSDVGGYNYVSWYQQHPGKAPKLMIYDVSNRPSGVSNRFSGSKSGNTASLTISGLQAEDEADYYCSSYTSSSSVVFGGGTKLTVL
B4: ab114 IgG (antibody, V domains shown)
VH: QVQLVQSGGGVVQPGRSLRLSCAASGFTFSSYGMHWVRQAPGKGLEWVAVIWYDGSNKYYADSVKGRFTISRDNSKNTLYLQMNSLRAEDTAVYYCARDVSSGWSPGDFDYWGQGTLVTVSS
VL: B3 VL with D52E, S98T, V99Y, G103T, L107V
B5: ab007 IgG (antibody, V domains shown)
VH: QVQLVQSGAEVKKPGSSVKVSCKASGGTFSSYAISWVRQAPGQGLEWMGGIIPIFGTANYAQKFQGRVTITADESTSTAYMELSSLRSEDTAVYYCASPHCSSTSCLYHYYYYGMDVWGQGTTVTVSS
VL: not shown
B6: ab119 IgG (antibody, V domains shown)
VH: EVQLVESGGGLIQPGGSLRLSCAASGFTVSSNYMSWVRQAPGKGLEWVSVIYSGGSTYYADSVKGRFTISRDNSKNTLYLQMNSLRAEDTAVYYCARDLRGITWGQGTLVTVSS
VL: not shown
B7: ab072 Fab (Fab, V domains shown)
VH: not shown
VL: B2 VL

What follows are binders tested against WIV1 RBD (bat SARS-like CoV WIV1, GenBank …, UniProt U5WI05) (assay: ELISA).

Question: Does B1 bind?
Answer: Result: binds

Question: Does B2 bind?
Answer: Result: binds

Question: Does B3 bind?
Answer: Result: binds

Question: Does B4 bind?
Answer: Result: binds

These binders were tested against RaTG13 RBD (bat CoV RaTG13, GenBank MN996532.2, UniProt A0ABF7PLN6) (assay: ELISA).

Question: Does B1 bind?
Answer: Result: binds

Question: Does B2 bind?
Answer: Result: binds

Question: Does B3 bind?
Answer: Result: binds

Question: Does B4 bind?
Answer: Result: binds

Each binder was assayed against SHC014 RBD (bat CoV SHC014, GenBank QJE50589.1, UniProt A0A6M3U4F6) (assay: ELISA).

Question: Does B1 bind?
Answer: Result: binds

Question: Does B2 bind?
Answer: Result: binds

Question: Does B3 bind?
Answer: Result: binds

Question: Does B4 bind?
Answer: Result: binds

The binders below were run against T1, SARS-CoV-2 receptor binding domain (RBD), wild type, monomeric (SARS-CoV-2, GenBank MN975262.1 (wild …, UniProt A0A679G9E9)) (assay: ELISA).

Question: Does B5 bind?
Answer: Result: binds

Question: Does B1 bind?
Answer: Result: binds

Question: Does B2 bind?
Answer: Result: binds

Question: Does B3 bind?
Answer: Result: binds

Question: Does B4 bind?
Answer: Result: binds

Question: Does B6 bind?
Answer: Result: binds

These binders were tested against SARS-CoV RBD (SARS-CoV, GenBank ABD72970.1, UniProt Q202E5) (assay: ELISA).

Question: Does B1 bind?
Answer: Result: binds

Question: Does B2 bind?
Answer: Result: binds

Question: Does B3 bind?
Answer: Result: binds

Question: Does B4 bind?
Answer: Result: binds

What follows are binders tested against T1, SARS-CoV-2 receptor binding domain … (assay: BLI).

Question: Does B7 bind?
Answer: Result: binds
